Laboratory results: patent US20220280611A1, “SOLID COMPOSITION COMPRISING A PYY COMPOUND AND A SALT OF N-(8-(2- HYDROXYBENZOYL)AMINO)CAPRYLIC ACID” (Novo Nordisk A/S, priority 2019, published 2022)
Starred links: 1 amine or outer side, 2 acyl side, 3 side chain; linkers in the order of their positions; H or OH if unused. Non-standard residues stand in square brackets, D forms with d. Groups on a side chain read outwards from the residue. No end group written: not given here. *: point of attachment. Decanoyl(10-(4-HOOC-PhO)) = O=C(O)c1ccc(OCCCCCCCCCC(=O)*)cc1; γGlu = O=C(O)[C@H](CCC(=O)[*:2])N[*:1]; AEEA = NCCOCCOCC(=O)O; Aib = CC(C)(N)C(=O)O

What was measured:
[1] = in words; PCT/EP2019/052487; cited from earlier work
[2] = Assay IV: Pharmacokinetic studies in Beagle dogs (oral exposure); assay type: in vivo; details: peroral
Description: Pharmacokinetic (PK) studies in Beagle dogs are conducted to determine the exposure of the PYY compound after peroral administration of different dosage forms.
For the pharmacokinetic studies male Beagle dogs are used, 1 to 5 years of age and weighing approximately 10-12 kg at the start of the studies. The dogs are group housed in pens (12 hours light: 12 hours dark), and fed individually and restrictedly once daily with Royal Canin Medium Adult dog (Royal Canin Products, China Branch, or Brogaarden A/S, Denmark). Exercise and group social are permitted daily, whenever possible. The dogs are used for repeated pharmacokinetic studies with a suitable wash-out period between successive dosings. An appropriate acclimatisation period is given prior to initiation of the first pharmacokinetic study. All handling, dosing and blood sampling of the animals are performed by trained and skilled staff. Before the studies the dogs are fasted overnight and from 0 to 4 h after dosing. Besides, the dogs are restricted to water 1 hour before dosing until 4 hours after dosing, but otherwise have ad libitum access to water during the whole period.
The tablets comprising the PYY compound are administered in the following manner: 10 min prior to tablet administration the dogs are dosed subcutaneously with approximately 3 nmol/kg of SEQ ID NO: 34). The PYY tablets are placed in the back of the mouth of the dog to prevent chewing. The mouth is then closed and tap water is given by a syringe or gavage to facilitate swallowing of the tablet.
Blood is sampled at predefined time points for up till 10 hr post dosing to adequately cover the full plasma concentration-time absorption profile of the PYY compound.
For each blood sampling time point approximately 0.8 mL of whole blood is collected in a 1.5 mL EDTA coated tube, and the tube is gently turned to allowing mixing of the sample with the EDTA. Blood samples (for example 0.8 mL) are collected in EDTA buffer (8 mM) and then centrifuged at 4° C. and 2000 G for 10 minutes. Plasma is pipetted into Micronic tubes on dry ice and kept at −20° C. until analysis. […]
PYY compound was assayed in dog plasma by plasma protein precipitation and turboflow liquid chromatography tandem mass spectrometry (TF-LC-MS/MS). […] The mixture was analysed by TF-LC-MS/MS using a Cyclone turboflow column (0.5×50 mm, ThermoFisher Scientific) and an Aeris Peptide 3.6 um XB-C18 analytical column (50×2.1 mm, Phenomenex) or a Poroshell SB-C18 2.7 um analytical column (50×2.1 mm, Agilent). […] The deviation between nominal and calculated concentration in the calibrators and quality control samples was below 20%. […]

[3] = Test 3 tablet, SNAC amount 300 mg
[4] = Test 4 tablet, SNAC amount 100 mg

## N-epsilon27-[2-[2-[2-[[2-[2-[2-[[(4S)-4-carboxy-4-[10-(4-carboxyphenoxy)decanoylamino]butanoyl]amino]ethoxy]ethoxy]acetyl]amino]ethoxy]ethoxy]-acetyl], N-epsilon36-[2-[2-[2-[[2-[2-[2-[[(4S)-4-carboxy-4-[10-(4-carboxyphenoxy)decanoylamino]-butanoyl]amino]ethoxy]ethoxy]acetyl]amino]ethoxy]ethoxy]acetyl]-[Aib8,Glu22,Arg26,Lys27, Glu30,Arg34,Lys36]-GLP-1-(7-37)-peptidyl-Glu-Gly (H[Aib]EGTFTSDVSSYLEEQAARK([AEEA-AEEA-γGlu-Decanoyl(10-(4-HOOC-PhO))])FIEWLVRGK([AEEA-AEEA-γGlu-Decanoyl(10-(4-HOOC-PhO))])GEG) [GLP-1 agonist A]
[1]
  Oral availability when formulated in a SNAC formulation: orally available

## N{alpha-4}-(3-Methylbutanoyl)-N{Epsilon-7}-6-[[(4S)-4-carboxy-4-(17-carboxy-heptadecanoylamino)butanoyl]amino]hexanoyl-[Arg4,Lys7,Pro9,Gln18,Tyr28,Trp30,Leu31]hPYY(4-36) [Compound 4]
[2]; [3]
  Dose corrected AUC 0-30 min: 2.24 arbitrary unit
  Dose corrected exposure t = 30 min: 0.138 kg/L

## N-epsilon26-[2-(2-{2-[2-(2-{2-[(S)-4-carboxy-4-(17-carboxyheptadecanoylamino) butyrylamino]ethoxy}ethoxy)acetylamino]ethoxy}ethoxy)acetyl][Aib8,Arg34]GLP-1(7-37) [Semaglutide]
[1]
  Oral availability when formulated in a SNAC formulation: orally available

## N{alpha-4}-(3-Methylbutanoyl)-N{Epsilon-7}-6-[[(4S)-4-carboxy-4-(17-carboxy-heptadecanoylamino)butanoyl]amino]hexanoyl-[Arg4,Lys7,Gln18,Ile22,Tyr28, Trp30,Leu31]hPYY(4-36) [Compound 32]
[2]; [4]
  Dose corrected AUC 0-30 min: 5.05 arbitrary unit
  Dose corrected exposure t = 30 min: 0.268 kg/L
